# Measured values from the supplement of paper PMC9170038.
# System: K4 kissing-loop RNA reporter
# Assay: apparent KD of K4 kissing-loop reporter; higher = weaker reporter binding
# Settings: Eterna round: R107
# Description: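 RNA-MaP round R107: designed RNA switches with theophylline, tryptophan, arginine or FMN aptamers are transcribed on-chip within common flanks. They are titrated with a labelled K4 kissing-loop RNA reporter in RNA-MaP buffer (100 mM Tris pH 7.5, 80 mM KCl, 4 mM MgCl2), without ligand or with the indicated ligand. Median apparent KD per design.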
# [1] = input ligand: theophylline 20 uM
# [2] = input ligand: tryptophan 2.4 mM
# 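Also: bound reporter read as fluorescence of individual clusters on recovered sequencing chips by microscopy, with normalized cluster intensities fitted with a binding model.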
Sequence,apparent KD of K4 kissing-loop reporter (input ligand: FMN 200 uM) [nM],apparent KD of K4 kissing-loop reporter (input ligand: arginine 13.2 mM) [nM],apparent KD of K4 kissing-loop reporter (input ligand: none) [nM],apparent KD of K4 kissing-loop reporter [1] [nM],apparent KD of K4 kissing-loop reporter [2] [nM]
GGCAUAUGAAAUCGCCUAGAGAGAAAGGAUACCAGCACCCGGCGGUGCCCUUGGCAGCCUAGCCCAGUGAUGUUGGGUCCUCUAA [Rasoonanxe],228,149,167,296,144
GGCAUGCAUGGAAACAUGCAUGCCAUGCCUCGAGGACCGGUACGGCCGCCACUCGUUAAAAGAAAUGCCAGUGAUGUUGGCCGAA,443,430,528,500,175
GGCCGGAAGGCGAGCGCUCCCACUCCGGAAGGAGCGCCCGCAAGGGCAGGUAGGUCGCCGGAGUGAUGUUCCGGUGGAGGGCUCG [#2 Exclusion - Arginine A Attempt #20 (Inspired by Omei)],185,308,379,8.89,136
GGGAAGUACGGAGGAUAUGCACUGAGGAGGAGAAUAUAGUGAUGUUAUAUAAGAGGAAGGAGAAGAGUAGAAGGCCGUGGAAAGG [SSFMNB.C],175,115,228,151,117
GGGAGUAGUGCGGCCGCCACUGAGAAAGAAGAAGAAUAUAGUGAUGUUAUAUAGGAAGGGAAGAACAGGACCGGGCAUUAGAUUU [SSTRyptB.Y],240,306,380,311,222
GGGAGUGAUGUUCCCACGUUGUCGGUCCUCCGAGGACCGGUACGGCCGCCACUCGCGACCCAGUGAUGUUGGGACUCACCGUACC [Exclusion Tryptophan A Gf 12],509,377,558,557,218
GGGCCUCUGGCUGAUACCAGUGAUAAAGGGUAAGAGACAGGGAGUGAUGUUCCCUUUAGCCACCCUUGGCAGCAGUUUAAGUUUG [Exclusion Theophylline B GF 18],84.8,82.8,85.5,86.6,77.3
GGGCCUCUGGCUGAUACCAGUGAUGCAGGGUCCGAGACAGGGAGUGAUGUUCCCUGCAGCCACCCUUGGCAGCAGUUUAAGUUUG [Exclusion Theophylline B GF 19],136,124,122,124,129
GGGCGCGGCGCGGCCGCCACUGGGCCUGGGCGCGCGCCGAGUGAUGUUCGCCUGCGGCUGGGUCGUAGGACCGGGUGCCGGCUGG [BDazzled 1],422,202,311,376,188
GGGUCAGUCUGAAGGAGCGGCCAGACAGAGCAGUGAUGUUGCUCCUAAUUUAAAAGUGUCGGCCAGGUAGGUCGCAGAUUGGCUC [Dienralais],154,127,161,152,165
GGGUGGUAGGCGGCCGCCACUCUGAGCACCCACUGAGUGAUGUUCGUGGCGUAAGCCUGUUCAUAGAGGACCGGGUUUGUUGUUC [Exclusion Tryptophan B GF 16],507,252,514,470,376
GGUAGCAUGGCGGCCGCCACUCUUCAUUAGUGAUGUUAAUGCCGAGUGGGCAAACUCCGCCAGGAGAGGACCGGGCCAUGCUACC,82.6,75.1,80.8,62.7,244
GGUAGCAUGGCGGCCGCCACUGCAAAGCAUAGCUACGGAAACGUAGCUACAGAGUGAUGUUCUGGCAGGACCGGGCCAUGCUACC,675,487,692,683,330
GGUAGCAUGGCGGCCGCCACUGUCUAGUGAUGUUAGACCCGACGUGGAUUCAAGACAGUCGGAAACAGGACCGGGCCAUGCUACC,390,229,330,163,179
GGUCCGGGCUCGGCCGCCACUCCCUCCUGCCGGAAGGUGGGAUACCGAGUGAUGUUCGGUUGGAGGAGGACCGGGAGCCCGGACC [#2 Exclusion - Tryptophan B Attempt #13 (HarryS)],132,106,123,161,129
GGUGACUACCAGAGGUGAUGUAUAGUAUCGCGAGGACCGGUACGGCCGCCACUCGUGAAGAGAAAGGAGUGAUGUUCCGUAAUGG [Kazoo C8],396,315,323,627,160
GGUGCUGUCUGUGCCGCCCUCCUCGUUCCUCGAGGACCGGUACGGCCGCCACUCGAGUGAUGUUUGGGUAGCGAUCCCUGCUAGC [Bdazzled - #16 Exc. Tryptophan A],792,719,1060,801,696
GGUGUUGUUUGUGCUGUUUUCUUUGUUUCUCGAGGACCGGUACGGCCGCCACUCGAGUGAUGUUUGGGUAGUGAUGUUUGUUAGU [Bdazzled #1 Exc. TA],241,147,198,180,239
GGUUUAUAGGAGGAUACCAGUACGGAUAAAGUACGUUAAUAGUAGAGUGAUGUUCUAAAGUACCCUUGGCAGCUUAGAGUAAGUU [ExTheophylB.K],85.8,147,105,117,63.4
GUAACCUUGCUCGAGUGAUGUUCGAGCGAAGGAGCGCGAGAAAUCGCAGGUAGGUCGCGCUCGAAAUUUGAGCGAACAAUUAUUA [Arg A Ex t2],128,125,138,123,113
GUAGACGUACCUUCAGUGAUGUUGAAGGAUACCAGAUGUUACCACAUCCCUUGGCAGCCUUGGGAUAACAGUGAGUCGGAAUAUG [Uslediti],176,136,158,166,142
GUAGGAUGGUGCGAUACCAGACCUGCAGUGAUGUUGCGCCAUAGUGAGUGAUGUUCACCGGUCCCUUGGCAGCGCGUCCAUAAAG [Same State Theophylline B GF 17],1060,719,1250,1160,882

Sequence,apparent KD of K4 kissing-loop reporter (input ligand: FMN 200 uM) [nM],apparent KD of K4 kissing-loop reporter (input ligand: arginine 13.2 mM) [nM],apparent KD of K4 kissing-loop reporter (input ligand: none) [nM],apparent KD of K4 kissing-loop reporter [1] [nM],apparent KD of K4 kissing-loop reporter [2] [nM]
GUAUAAGUGGGCGAUACCAGCUGUCGGUAGUGAUGUUAUUCAGCAGUCAGGAAGUUCGCUAGCCCUUGGCAGCGCCAGUGGUGAC [theeternabot_exclusion_KL_Theo_B_19],383,324,416,351,341
GUAUCAGUGAUGUUGGUAGGCGAGCGGGAUACCAGCCAAGACUCAGGCCCUUGGCAGCCCACAUAUCCCACGUAGAUAGUAGCUC [Same State - Theophylline A (Freestyle 15)],155,95.6,149,139,133
GUAUCGCUAGGAGGAUAUUUCAAUCUGACUCUUUGAGUUAGUACGGAGUGAUGUUCCGAUUUACGGAAAGAAGGCCUAGUGAUAC [FMN B 11],142,312,378,264,299
GUAUGUGAUGGAAACAUCGCAUACACUGAUACCAGUAUCGAUAGAUACCCUUGGCAGCAGAAAACUGCAAUUGGAGUGAUGUUCC [Ex Theophylline A K4 1],213,175,229,216,201
GUCAUCAGAUCGCAAGAUCUGAUAGCCGAUACCAGCGCGAAGGUGCGCCCUUGGCAGCGGCACCGAGUGAUGUUCGGUCAGACGA [#2 Same State - Theophylline A Attempt #5 (HarryS)],526,392,514,330,427
GUCCCGAGUGAUGUUCGGGUCGUUCGGGAAGGAGCGCCCGCAAGGGCAGGUAGGUCGCCCGGAUCCCUCAGGUAACUGAGGGACC [#2 Same State - Arginine A Attempt #26 (HarryS)],632,428,491,467,465
GUCUCAAAAGAGGCAAGCACUCACGAGGACAAGGAUAUCAUAUCAAUGAGAAGGUGUCCUCGUCCUUAGUGAUGUUAAGGAGUGC [Omei KL FMN A SS E v3],297,298,357,196,330
GUCUCAAAAGAGGCAAGCACUCACGAGGACAAGGAUAUCAUCUCAAUGAGAAGGUGUCCUCGUCCCUAGUGAUGUUAGGGAGUGC [Omei KL FMN A SS E v2],211,334,368,478,468
GUCUCGAGUGAUGUUCGGGUCGAUUGGGAAGGAGCGCCCGGAAGGGCAGGUAGGUCGCCCGGACCGCGCGGGCAACCGCGCGGCC [#2 Same State - Arginine A Attempt #11 (HarryS)],186,108,147,141,163
GUGAAGGAGAUGCAGUGAUGUUGCAGAGACUAGGAUAUCAGGAAACUGAGAAGGAGUCAAUUCCUUCAUUUAGACUGCAACAUAA [KL-SSFMN-A12],204,139,138,296,191
GUGAAUGGCUGAGCAGCCGUGGUACGAGAUACCAGUGAUUUCGAUCACCCUUGGCAGCUCGGCGUGAGUGAUGUUCACGCUACAC [Theo A SS t12a],273,278,300,330,270
GUGUGGAUCCGAAGGAGCGUCCGCAAUCCAGUGAUGUUGGGUGUUGGUUUUAGUAGACGAGGACAGGUAGGUCGCGGAUUUACAA [Same State Arginie B GF 23],133,104,153,110,105
GUUACGCAUGGAAGGAGCGCACUCCGAUUGAUCGACACAGUGAUGUUGUGGUUCGUUCGAAUGCAGGUAGGUCGCCAUGUGUAAC [Ex Arginine B K4 17],259,250,253,303,233
GUUACGCAUGGAAGGAGCGCAUGCUCAACUAUAAGCUCAGUGAUGUUGAGCAUUUUUUUUUUGCAGGUAGGUCGCCAUGUGUAAC [Ex Arginine B K4 29],320,255,386,438,217
GUUACGCAUGGAAGGAGCGCUCUCAUGCUUAAUAACACAGUGAUGUUGUGAAUUUGCAUAAAGCAGGUAGGUCGCCAUGUGUAAC [Ex Arginine B K4 8],399,303,359,291,332
GUUACGCAUGGAAGGAGCGCUCUCCGGUUUAUUAACACAGUGAUGUUGUGAUUUUACCGAAAGCAGGUAGGUCGCCAUGUGUAAC [Ex Arginine B K4 12],356,320,416,381,372
GUUUCUUGGAAACAAGGACCGCUAACCGAAGGAGCGAGUGAAAACUCAGGUAGGUCGCGGUAGCGGAGUGAUGUUCCGCGUUUAC [Excluson Arginine A GF 15],91.3,129,123,150,99.8
UAAAACGCUUGAAUAACAAGCGAAAAUUCGCGAGGACCGGUACGGCCGCCACUCGCUAACUGCGAGUGAUGUUCGAUAAUAAAAU [Mat - Mod of OpenEnded 3 - D4],149,70.1,158,188,95.5
UAACUCUUGCAGUGAUGUUGCAAGUAAGCUCAGGAUAUCAGGAAACUGAGAAGGGAGUAUCCUGAGCUUCUGCAAGAGCUCAGAA [KL-SSFMN-A5],227,83.2,362,68.6,97.3
UAAGAAUAAGUAGCAGUGAUGUUGCUACUGCGAGGACCGGUACGGCCGCCACUCGAGUCCUCGAAGCAUCACUGAACGAGGAAUA [whbob_SS_Tryp_A_m12],272,229,278,326,360
UAAGCUCUGACGGCCGCCACUGCACGUGAUCCAGUAGUGGCUAACAUGAGUGAUGUUCAUGUAAGCAGGACCGGGUCAGAGCUAA [KL-XTryp-B13 #analogue],103,87.9,94.7,81.7,120
